Test results from PMC5374532, “Rational mutagenesis by engineering disulphide bonds improves Kluyveromyces lactis beta-galactosidase for high-temperature industrial applications” (Scientific Reports, 2017).

Molecular target: the molecule itself
Experiment: AUC; sedimentation velocity, 0.2 mg/mL enzyme, 50 mM Tris-HCl, 150 mM NaCl, pH 7.4, 48 k rpm, c(s) distribution (SEDFIT); self-association, shares of monomer, dimer, trimer and tetramer

B1: Kluyveromyces lactis β-galactosidase (enzyme, UniProt P00723 2-1025, looked up)
chain: SCLIPENLRNPKKVHENRLPTRAYYYDQDIFESLNGPWAFALFDAPLDAPDAKNLDWETAKKWSTISVPSHWELQEDWKYGKPIYTNVQYPIPIDIPNPPTVNPTGVYARTFELDSKSIESFEHRLRFEGVDNCYELYVNGQYVGFNKGSRNGAEFDIQKYVSEGENLVVVKVFKWSDSTYIEDQDQWWLSGIYRDVSLLKLPKKAHIEDVRVTTTFVDSQYQDAELSVKVDVQGSSYDHINFTLYEPEDGSKVYDASSLLNEENGNTTFSTKEFISFSTKKNEETAFKINVKAPEHWTAENPTLYKYQLDLIGSDGSVIQSIKHHVGFRQVELKDGNITVNGKDILFRGVNRHDHHPRFGRAVPLDFVVRDLILMKKFNINAVRNSHYPNHPKVYDLFDKLGFWVIDEADLETHGVQEPFNRHTNLEAEYPDTKNKLYDVNAHYLSDNPEYEVAYLDRASQLVLRDVNHPSIIIWSLGNEACYGRNHKAMYKLIKQLDPTRLVHYEGDLNALSADIFSFMYPTFEIMERWRKNHTDENGKFEKPLILCEYGHAMGNGPGSLKEYQELFYKEKFYQGGFIWEWANHGIEFEDVSTADGKLHKAYAYGGDFKEEVHDGVFIMDGLCNSEHNPTPGLVEYKKVIEPVHIKIAHGSVTITNKHDFITTDHLLFIDKDTGKTIDVPSLKPEESVTIPSDTTYVVAVLKDDAGVLKAGHEIAWGQAELPLKVPDFVTETAEKAAKINDGKRYVSVESSGLHFILDKLLGKIESLKVKGKEISSKFEGSSITFWRPPTNNDEPRDFKNWKKYNIDLMKQNIHGVSVEKGSNGSLAVVTVNSRISPVVFYYGFETVQKYTIFANKINLNTSMKLTGEYQPPDFPRVGYEFWLGDSYESFEWLGRGPGESYPDKKESQRFGLYDSKDVEEFVYDYPQENGNHTDTHFLNIKFEGAGKLSIFQKEKPFNFKISDEYGVDEAAHACDVKRYGRHYLRLDHAIHGVGSEACGPAVLDQYRLKAQDFNFEFDLAFE
notes: β-galactosidase of Kluyveromyces lactis, LAC4 gene (Gene ID 2897170), amplified from plasmid pLX8 and cloned in YEpFLAG; Monomer 118 kDa as printed; also called Kl-β-Gal; native Kl-β-Gal; not shown: FLAG, N-terminal, kept
With B1 the “stoichiometry N” value was 2.
